# B1: Androgen receptor activation domain fragment Nt C123 (residues 1-151, C129S) (Homo sapiens; C129S) (protein)
# chain: MEVQLGLGRVYPRPPSKTYRGAFQNLFQSVREVIQNPGPRHPEAASAAPPGASLLLLQQQQQQQQQQQQQQQQQQQQQETSPRQQQQQQGEDGSPQAHRRGPTGYLVLDEEQQPSQPQSALECHPERGSVPEPGAAVAASKGLPQQLPAPP
# B2: Androgen receptor activation domain fragment Tau-5* C404 (residues 330-447, C448 deleted) (Homo sapiens; del448) (protein)
# chain: AAGSSGTLELPSTLSLYKSGALDEAAAYQSRDYYNFPLALAGPPPPPPPPHPHARIKLENPLDYGSAWAAAAAQCRYGDLASLHGAGAAGPGSGSPSAAASSSWHTLFTAEEGQLYGP
# B3: Androgen receptor activation domain fragment Ct C518 (residues 441-558, 4G polyG, C448 deleted) (Homo sapiens; del448;del451-470) (protein)
# chain: EGQLYGPGGGGEAGAVAPYGYTRPPQGLAGQESDFTAPDVWYPGGMVSRVPYPSPTCVKSEMGPWMDSYSGPYGDMRLETARDHVLPIDYYFPPQKT
# B4: mineralocorticoid receptor activation domain (MR AD) (domain or fragment, human (from the printed UniProt entry), UniProt P08235 1-602, looked up)
# chain: METKGYHSLPEGLDMERRWGQVSQAVERSSLGPTERTDENNYMEIVNVSCVSGAIPNNSTQGSSKEKQELLPCLQQDNNRPGILTSDIKTELESKELSATVAESMGLYMDSVRDADYSYEQQNQQGSMSPAKIYQNVEQLVKFYKGNGHRPSTLSCVNTPLRSFMSDSGSSVNGGVMRAVVKSPIMCHEKSPSVCSPLNMTSSVCSPAGINSVSSTTASFGSFPVHSPITQGTPLTCSPNVENRGSRSHSPAHASNVGSPLSSPLSSMKSSISSPPSHCSVKSPVSSPNNVTLRSSVSSPANINNSRCSVSSPSNTNNRSTLSSPAASTVGSICSPVNNAFSYTASGTSAGSSTLRDVVPSPDTQEKGAQEVPFPKTEEVESAISNGVTGQLNIVQYIKPEPDGAFSSSCLGGNSKINSDSSFSVPIKQESTKHSCSGTSFKGNPTVNPFPFMDGSYFSFMDDKDYYSLSGILGPPVPGFDGNCEGSGFPVGIKQEPDDGSYYPEASIPSSAIVGVNSGGQSFHYRIGAQGTISLSRSARDQSFQHLSSFPPVNTLVESWKSHGDLSSRRSDGYPVLEYIPENVSSSTLRSVSTGSSRPSKI
# notes: source: E. coli Rosetta (DE3), purified from inclusion bodies (HisTrap in urea, SEC); not shown: His tag, N-terminal, cleaved
# B5: progesterone receptor activation domain (PR AD) (domain or fragment, human (from the printed UniProt entry), UniProt P06401 1-566, looked up)
# chain: MTELKAKGPRAPHVAGGPPSPEVGSPLLCRPAAGPFPGSQTSDTLPEVSAIPISLDGLLFPRPCQGQDPSDEKTQDQQSLSDVEGAYSRAEATRGAGGSSSSPPEKDSGLLDSVLDTLLAPSGPGQSQPSPPACEVTSSWCLFGPELPEDPPAAPATQRVLSPLMSRSGCKVGDSSGTAAAHKVLPRGLSPARQLLLPASESPHWSGAPVKPSPQAAAVEVEEEDGSESEESAGPLLKGKPRALGGAAAGGGAAAVPPGAAAGGVALVPKEDSRFSAPRVALVEQDAPMAPGRSPLATTVMDFIHVPILPLNHALLAARTRQLLEDESYDGGAGAASAFAPPRSSPCASSTPVAVGDFPDCAYPPDAEPKDDAYPLYSDFQPPALKIKEEEEGAEASARSPRSYLVAGANPAAFPDFPLGPPPPLPPRATPSRPGEAAVTAAPASASVSSASSSGSTLECILYKAEGAPPQQGPFAPPPCKAPGASGCLLPRDGLPSTSASAAAAGAAPALYPALGLNGLPQLGYQAAVLKEGLPQVYPPYLNYLRPDSEASQSPQYSFESLPQKI
# notes: as for B4
# B6: glucocorticoid receptor activation domain (GR AD) (domain or fragment, human (from the printed UniProt entry), UniProt P04150 1-420, looked up)
# chain: MDSKESLTPGREENPSSVLAQERGDVMDFYKTLRGGATVKVSASSPSLAVASQSDSKQRRLLVDFPKGSVSNAQQPDLSKAVSLSMGLYMGETETKVMGNDLGFPQQGQISLSSGETDLKLLEESIANLNRSTSVPENPKSSASTAVSAAPTEKEFPKTHSDVSSEQQHLKGQTGTNGGNVKLYTTDQSTFDILQDLEFSSGSPGKETNESPWRSDLLIDENCLLSPLAGEDDSFLLEGNSNEDCKPLILPDTKPKIKDNGDLVLSSPSNVTLPQVKTEKEDFIELCTPGVIKQEKLGTVYCQASFPGANIIGNKMSAISVHGVSTSGGQMYHYDMNTASLSQQQDQKPIFNVIPPIPVGSENWNRCQGSGDDNLTSLGTLNFPGRTVFSNGYSSPSMRPDVSSPPSSSSTATTGPPPKL
# notes: as for B4
# B7: estrogen receptor alpha activation domain (ERα AD) (domain or fragment, human (from the printed UniProt entry), UniProt P03372 1-184, looked up)
# chain: MTMTLHTKASGMALLHQIQGNELEPLNRPQLKIPLERPLGEVYLDSSKPAVYNYPEGAAYEFNAAAAANAQVYGQTGLPYGPGSEAAAFGSNGLGGFPPLNSVSPSPLMLLHPPPQLSPFLQPHGQQVPYYLENEPSGYTVREAGPPAFYRPNSDNRRQGGRERLASTNDKGSMAMESAKETRY
# notes: as for B4
# Target: Cys123 (position 123, …)
# Assay: NMR
# Settings: 5 °C, 20 mM sodium phosphate, no added salt stated, 3 mM TCEP, 0.05% (w/v) NaN3, Reduced free thiol, intrinsically disordered fragments, no ligand. Protein concentrations were 70 μM Nt C123, 300 μM Tau-5* C404 and 150 μM Ct C518.
row,Molecule,pKa
1,B1,8.86 ± 0.03

# Target: Cys404 (UniProt position 406, …)
# Assay: NMR
# Settings: 5 °C, 20 mM sodium phosphate, no added salt stated, 3 mM TCEP, 0.05% (w/v) NaN3, Reduced free thiol, intrinsically disordered fragments, no ligand. Protein concentrations were 70 μM Nt C123, 300 μM Tau-5* C404 and 150 μM Ct C518.
row,Molecule,pKa
1,B2,8.95 ± 0.05

# Target: Cys518
# Assay: NMR
# Settings: 5 °C, 20 mM sodium phosphate, no added salt stated, 3 mM TCEP, 0.05% (w/v) NaN3, Reduced free thiol, intrinsically disordered fragments, no ligand. Protein concentrations were 70 μM Nt C123, 300 μM Tau-5* C404 and 150 μM Ct C518.
row,Molecule,pKa
1,B3,8.20 ± 0.08

# Target: EPI-001
# Assay: intact MS
# Settings: t = 24 hours (last time point); parent: est. 21; read off a plot
row,other: EPI-001 adduct (%),Molecule
1,9.3,AR AD fragment transactivation unit 5 (Tau-5*; residues 330 to 448) (from UniProt P10275) W433A; H434A; F437A
2,26,AR AD fragment transactivation unit 5 (Tau-5*; residues 330 to 448) (from UniProt P10275) G394A; S395A; G407A
3,2.5,AR AD fragment transactivation unit 5 (Tau-5*; residues 330 to 448) (from UniProt P10275) Y393S; W397A; Y406S; H413A
4,11,AR AD fragment transactivation unit 5 (Tau-5*; residues 330 to 448) (from UniProt P10275) A398P

# Target: EPI-001
# Assay: 1H NMR chemical shift perturbation of EPI-001
# Settings: 1 molar equivalent of the corresponding Tau-5* mutant; parent: est. -0.018; read off a plot
row,response [p.p.m.],Molecule
1,-0.013,AR AD fragment transactivation unit 5 (Tau-5*; residues 330 to 448) (from UniProt P10275) L436P
2,-0.008,AR AD fragment transactivation unit 5 (Tau-5*; residues 330 to 448) (from UniProt P10275) W433A; H434A; F437A
3,-0.042,AR AD fragment transactivation unit 5 (Tau-5*; residues 330 to 448) (from UniProt P10275) G394A; S395A; G407A
4,-0.003,AR AD fragment transactivation unit 5 (Tau-5*; residues 330 to 448) (from UniProt P10275) noAro
5,-0.006,AR AD fragment transactivation unit 5 (Tau-5*; residues 330 to 448) (from UniProt P10275) Y393S; W397A; Y406S; H413A
6,-0.012,AR AD fragment transactivation unit 5 (Tau-5*; residues 330 to 448) (from UniProt P10275) A398P
7,-0.024,AR AD fragment transactivation unit 5 (Tau-5*; residues 330 to 448) (from UniProt P10275) G407A
8,-0.021,AR AD fragment transactivation unit 5 (Tau-5*; residues 330 to 448) (from UniProt P10275) C404Y

# Target: the molecule itself
# Assay: dynamic light scattering; NR ADs in 20 mM sodium phosphate pH 7.4, 1 mM TCEP, 0.5% DMSO-d6, 5°C; percentage population of monomer and high-order species; 35 μM AR AD; with and without EPI-001
# Settings: not given
row,Molecule,binding result
1,B4,binds
2,B5,binds
3,B6,binds
4,B7,binds
